From patent US12385055B2, “Compositions and methods for production of salidroside, icariside D2, and precursors of salidroside and icariside D2” (Whitehead Institute for Biomedical Research, priority 2017, dated 2025)

Tests used:
[1] = system: tyrosol; assay: In vivo tyrosol glycosylation assay in yeast expressing Rr4HPAAS; type: cell-based; settings: UGT on 2-micron TEF-promoter plasmid in S. cerevisiae BY4743 expressing Rr4HPAAS
Description: To facilitate functional assessment of a large number of UGT candidates, an in vivo tyrosol glycosylation assay in the yeast S. cerevisiae was devised. Initial iterations of the tyrosol-producing yeast strains were generated by transforming wild type S. cerevisiae BY4743 with separate 2-micron TEF-promoter expression plasmids containing Rr4HPAAS and Rr4HPAR1, respectively. It was later observed that yeast contains endogenous ADH activity sufficient to reduce 4-hydroxyphenylacetaladehyde produced by Rr4HPAAS to tyrosol. Therefore, the Rr4HPAR1-containing plasmid was omitted in the final tyrosol-producing strain (FIG. 18). Each of the 34 R. rosea UGT candidate genes, carried on the yeast 2-micron TEF-promoter expression plasmids, was transformed into the background strain expressing Rr4HPAAS. After auxotrophic selection, colonies were cultured, harvested and subjected to metabolic profiling by LC-HRAM-MS. […] The UGTs that contain T4GT activity appear to be phylogenetically diverse with representative enzymes falling into the D, G, E and K groups, while all of identified T8GTs cluster within the G group (FIG. 4A).
Crown tissue and root tissue of a three-month-old R. rosea plant was harvested and stored at −80° C. before subsequent metabolomic analysis. Various transgene-carrying S. cerevisiae BY4743 strains and transiently transformed N. benthamiana plants were generated to test the activity of candidate genes involved in the tyrosol glycoside biosynthesis. 3 mL of saturated S. cerevisiae culture was used to inoculate 50 mL of synthetic minimal media (SD) in a shake flask. After 24 hours of shaking at 30° C., the culture was pelleted by centrifugation, washed with water, and stored at −80° C. before further processing. N. benthamiana leaf tissue was harvested 5 days after Agrobacterium infiltration and was stored at −80° C. before further processing. Frozen yeast or plant tissue was disrupted with a TissueLyser (Qiagen) using acid-washed metal beads in 50% methanol (500 μL per 100 mg fresh weight). The extracts were then analyzed by LC-HRAM-MS. Metabolite profiling was conducted on a QExactive benchtop orbitrap mass spectrometer equipped with an Ion Max source and a HESI II probe, which was coupled to a Dionex UltiMate 3000 UPLC system (Thermo Fisher Scientific). 2 μL of each sample was injected onto a 150×2.1 mm ZIC-pHILIC column (5 μm particle size, EMD Millipore). Solvent A was 20 mM ammonium carbonate, 0.1% ammonium hydroxide; solvent B was acetonitrile. The column oven and autosampler tray were held at 25° C. and 4° C., respectively. The chromatographic gradient was run at a flow rate of 0.15 mL/min as follows: 0-20 min, linear gradient from 80% to 20% solvent B; 20-20.5 min, linear gradient from 20% to 80% solvent B; 20.5-28 min, hold at 80% solvent B. The mass spectrometer was operated in full-scan, polarity-switching mode with the spray voltage set to 3.0 kV, the heated capillary held at 275° C., and the HESI probe held at 350° C. The sheath gas flow was set to 40 units, the auxiliary gas flow was set to 15 units, and the sweep gas flow was set to 1 unit. The MS data acquisition was performed in a range of 70-1000 m/z, with the resolution set at 70,000, the AGC target at 10 e6, and the maximum injection time at 20 msec. The raw data was converted to mzML format using MSConvert (Chambers et al., 2012), and analyzed using MetaboAnalyst (Xia and Wishart, 2016) and MZmine2 (Pluskal et al., 2010).

[2] = substrate: OCCc1ccc(O)cc1; assay: Michaelis-Menten kinetics of RrT4GT (RrUGT3), tyrosol 4-O-glucosylation; type: biochemical, Rhodiola rosea; settings: other: substrate tyrosol (0.01-5.0 mM), 10 mM UDP-glucose, pH 8.0, 30° C., 10 min
Procedure: Kinetic characterization of UGTs was conducted in 200 μL reaction buffer (50 mM Tris, pH 8.0) containing 10 mM UDP-glucose and various concentrations of tyrosol (0.01-5.0 mM). Reactions were started with addition of recombinant enzyme, incubated at 30° C. for 10 minutes, and quenched by addition of 200 μL of methanol. The reaction mixed was then analyzed by LC-HRAR-MS as described above. Compounds were separated by reversed-phase chromatography with a ramp gradient of solvent A (0.1% formic acid in H2O) and solvent B (0.1% formic acid in acetonitrile): 5% solvent B for 0.5 min, 5-55% solvent B over 6 min, 55-5% solvent B over 1.0 min and a final equilibration of 5% solvent B for 1 min with a flow rate at 0.6 mL/min. Product formation was measured using select ion monitoring in positive mode for a centroid center mass of 318.15. Product mass was calculated by comparison to a standard curve of the NMR verified plant purified salidroside and icariside D2 samples.
Kinetic constants such as Km and Vmax were determined by fitting raw data to the Michaelis-Menten equation using the nonlinear regression function in Prism (version 7.0).

Row | Molecule | tyrosol glycosylation activity (T8GT / T4GT) [1] | also measured
1 | RrUGT2: R. rosea UGT with regio-specific T4GT activity, icariside D2-producing (protein, listed as Rhodiola rosea) MGSDSRPLRVFFFPFMAHGHLIPMVDIARLFSSQGVHSTIITTPLNANYISKTTSLSIKTIPFPAAEVGLPDGCENIDMLPSPDLFFKFFQAANLLQAPFENLLELERPDCLISDIFFPWSVDSAEKFNIPRLVFHGTSFFAMCAMESLKTHKPYKSVSTDSEPFLIPNLPDEIKMTKSQFTVDAWEDTEKGLGKLLADARASGLRSFGMIVNSFHELEPAYADYYKNVLNMKAWCVGPVSLYNRNDDEKIARGKKSAIDDHECLKWLEGKQPDSVVYVCFGSSASFPDEQLRDIALGLEESGVNFIWVIRRSSESGSEDYLPEGFEDRVKDRGLVIRGWAPQVLILDHPSVGGFVTHCGWNSALEGISAGLPMVTWPLFAEQFFNQKLITDVLKVGVEVGVQKWSRNGEDRVTKEKVEKAVRAVMVGEDAEERRGRARQLGKLAKKAVAKDGSSYIDLHNLLDELKLRRETLS | regio-specific T4GT activity | –
2 | RrUGT7: R. rosea UGT with regio-specific T4GT activity (protein, listed as Rhodiola rosea) MAENTHAHAIVVPFPVQGHIKPSLNLALKLASQGFTITFVTTHFTHQQISQAHKNSTNTNHDMFFQARNSSLDIRHVTVTDTFPLGFDRAGNQDQFWEGMLHVFPAHVDELVDQLMNSSKPRPTCLILDTFYNWGSKIANKFNLVHISFWTQSALSFTLFYHWELLKKNGHFGSPDNRTDVIDYIPGVQEIKPADLISYLQMSDTTTVAHRTCFTAFEDVRKADFILANTIQEFETDTISSIRFHQPFFYPIGPVFLTKSEQQASSALWSESDCEQWLSTKPKGSVLYASFGSYARVTRHDIAEIAYGLMQSEVNFIWVIRDDIVGAHETDFLPTEFINGIKLKDQGLLVSWCSQTEVLSNAAIGGFLTHCGWNSILESVWCEVPLLCFPIMTDQPSNRKLVVDDWRIGVNLSAAEEVSREEVSMKVRNLISGELGNELRVQIQKYKKLMENGIMEGGSSHSNWNKFIHDLQIFKK | regio-specific T4GT activity | –
3 | RrUGT17: R. rosea UGT with both T8GT and T4GT activities (protein, listed as Rhodiola rosea) MGSLPSTKSHAVLVPYPAQGHINPFMQLAKLLHSKGFHITFVNNDHNHRRLLRTKGHDFVQGLEGLRFEAVPDGLPPSDRDATQDVPKLTESIYNKSMNQPFSDLLQRLNSTPGSPPVTCVISDVAMFFAWDVADELGIPNVQFWTASACGLLGYLQYDELLRRAIVPFKDENFMTDGSLEALIDWIPGMPNMRLKDLPSFMRTTSPDDVLFNYLRTITTKALKSSALLLNTFDDFEHEVVEEMKKMQPNIFLGGPLNMLLRHTSKTEITSLTTSLWKEDTHCLEWLDKQEPESVVYINYGSVTIMSDHHLNEFAWGLANSKHPFLWIVRPDVVRGESGTLPKEFYDEIKDRGLITSWCPQPEVLKHPSVGVYLTHCGWNSITESVAGGVPLMCWPFFAEQQTNSRFACTVWGTGVEVNADVKREELAEQVMEMLEGKRGQELRKNAKEWRRKAEEATDIGGSAYADFDRFMEKVVQFSV | both T8GT and T4GT activities | –
4 | RrUGT29: R. rosea UGT with regio-specific T8GT activity, salidroside-producing (protein, listed as Rhodiola rosea) MGSLGKKIQQKPHAICTPYPAQGHINPMLKLAKLLHHSGFYITFVHTTYNYNRLLKTHGSDSLSGLPDFQFETIPDGLPPSDAADVTQDIPALCKSTTETCLVPFKELLAKLHNKSMASPEEVPPVTCIVSDGCMSFTVDAAEEAGVPNVLLWTTSACGFLGYANYPKLIDRGIIPLKDESYFTNGYLDKTVDGIPGMKGIRLRDFPNFVCTTNPDEFMVKYAIQEITRAARADAVILNTFDALEHDFLDGLSNIYPKVLPIGPLQLPLNQIPESSPLHSICSSLWKDEPQCITWLNSQKPKSVVYVNYGSITVMTPQQMVEFAWGLANTKYPFLWIIRPDLVAGETAVLPPDFLEVTKGRSCLASWCPQEQVLSHTSIGGFLTHCGWNSMLESVVEGVPMVCWPFFAEQQTNCWAARTKWGIGMEIDNDVKRDKVQKMVTELMEGEKGKEMKRKGGEWKKLGAEAAGPNGSATLNFSRLINDVLLSKKKIVVTT | regio-specific T8GT activity | –
5 | RrUGT32: R. rosea UGT with regio-specific T8GT activity (protein, listed as Rhodiola rosea) MGSLGKKIQQKPHAICTPYPAQGHINPMLKLAKLLHHSGFYITFVHTTYNYNRLLKTHGSDSLSGLPDFQFETIPDGLPPSDAADVTQDIPALCKSTTETCLVPFKELLAKLHNKSMASPEEVPPVTCIVSDGCMSFTVDAAEEAGVPNVLLWTTSACGFLGYANYPKLIDRGIIPLKDESYFTNGYLDKTVDGIPGMKGIRLRDFPNFVCTTNPDEFMVKYAIQEITRAARADAVILNTFDALEHDFLDGLSNIYPKVLPIGPLQLPLNQIPESSPLHSICSSLWKDEPQCITWLNSQKPKSVVYVNYGSITVMTPQQMVEFAWGLANTKYPFLWIIRPDLVAGETAVLPPDFLEVTKGRSCLASWCPQEQVLSHTSIGGFLTHCGWNSMLESVVEGVPMVCWPFFAEQQTNCWAARTKWGIGMEIDNDVKRDKVQKMVTELMEGEKGKEMKRKGGEWKKLGAEAAGPNGSATLNFSRLINDVLLSKKKL | regio-specific T8GT activity | –
6 | Rhodiola rosea RrT4GT (RrUGT3), tyrosol:UDP-glucose 4-O-glucosyltransferase, SEQ ID NO: 8 (Rhodiola rosea) (protein) MSGTPHIAILPSPGMGHLIPMAEFAKRLVHHHNFSITFVIPTDGPPSSAYQQVLTSLPSSIDHIFLPQVDLTDVVSQSPAHPRIETLISLTVARSLSSLRTTLSSLQSSKNLVSLVVDLFGTDAFDPAIELGISPYIFFPSTAMTLSLFLYMPQLDKSVTCEFRHMTDLVRIPGCVPVRGSDLFDPVQDRTDEAYKWVIHHSNRYPMAEGVIENSFMELEHGALKYLQTVQSGKPPVYAVGPLIKMDYDVDDSGSKIIEWLDDQPVGSVLFVSFGSGGTLSYEQMTELAHGLESSQQRFLWVVRSPNQIPNSTYFSVQSQKDPLAYLPEGFLNRTEGRGLVVSNWAPQAQILSHGSTGGFMSHCGWNSILESVVHGVPIIAWPLYAEQKMNSIIVVEDVKVALRPAGVGERVVERSEITAVVKALMEGEEGKKVRNRMKELKEAAARAVSDDGASTIAIADLAQKWRSSMKH | – | Km [2]: 4.11 ± 0.08 mM; kcat [2]: 481.6 ± 3.91 s⁻¹; kcat/Km [2]: 117000 M⁻¹ s⁻¹
7 | RrUGT13: R. rosea UGT with regio-specific T4GT activity (protein, listed as Rhodiola rosea) MAEISLIFIPFPVISHLTPTIEIAKILLSRDHRLSITFLVIDIPQRDASLASLTTSIISDRLHFLDVVLPPNQHSQSSKPSGIAAIESAKPAVKKTISDLVVRSQSAASGPRIAGFVLDMFCTAMIDIATEFNLPSYIYYTCGSSFLSIVLHVQKLCDDDALDIADFKNSSVEFSLPEFSNLIPARLLPSMALDKDFSASFVGKARAFRKTKGILVNSLVELEPHAIESMKLDRSVPPIYSVGPVLNMNSNTAFIRQEQEKEIMEWLDQQPPASVVFLCFGSRGAFKPDQVKEIARGLESSGCRFLWALRQPSSSNVRFSPPTDYEDFSEVLPEGFLQRTYGVGKVIGWAPQTAVLDHPSVGGFVSHCGWNSILESLWFGVPIATWPLYAEQQMNAFEVVKEMKIGVEISLDYRLEMGGKQAEGSGIISGEQIERGIRDVMQEDSEVRKKVKLMMEKSREAVVEGGSSYNYIQNFISDLRTNIGL | regio-specific T4GT activity | –
